# Measurements reported in paper PMC10360031 (ACS Applied Materials & Interfaces, 2023).
# Target: T1, wild-strain SARS-CoV-2 spike protein RBD (SARS-CoV-2, UniProt P0DTC2)
# T1 construct: also called S1 RBD; wild-type strain S1 RBD
# Test: AFM single-molecule force spectroscopy
# Details: one partner purified
binder,measurement,value
"cell-surface vimentin (CSV) on mouse embryonic fibroblasts mEF +/+ (natural protein, also called extracellular Vim; native extracellular Vim; source: endogenous, on live mEF +/+ cells) not shown",koff,0.19 ± 0.07 s⁻¹
